Source: patent US20210388087A1 (Chugai, published 2021)
Where a chain is given by its changes, count along the chain named.

B1: CE115HA000/GLS3000 H27dE (antibody, IgG1, name in Kabat numbering, V domains shown)
VH: QVQLVESGGGVVQPGRSLRLSCAASGFTFSNAWMHWVRQAPGKGLEWVAQIKAKSNNYATYYAESVKGRFTISRDDSKNSLYLQMNSLKTEDTAVYYCRYVHYGAYYGVDAWGQGTTVTVSS
VL: DIVMTQSPLSLPVTPGEPASISCRSSQSLVESNRNTYLHWYQQKPGQAPRLLIYKVSNRFSGVPDRFSGSGSGTDFTLKISRVEAEDVGVYYCGQGTQVPYTFGQGTKLEIK
notes: one-arm IgG1
B2: CE115HA000/GLS3000 H27dR (antibody, IgG1, name in Kabat numbering, V domains shown)
VH: B1 VH
VL: B1 VL with E31R
notes: one-arm IgG1
B3: CE115HA000/GLS3000 K50Q (antibody, IgG1, name in Kabat numbering, V domains shown)
VH: B1 VH
VL: B1 VL with E31H, K55Q
notes: one-arm IgG1
B4: CE115HA000/GLS3000 H34Q (antibody, IgG1, name in Kabat numbering, V domains shown)
VH: B1 VH
VL: B1 VL with E31H, H39Q
notes: one-arm IgG1
B5: CE115HA000/GLS3000 H34K (antibody, IgG1, name in Kabat numbering, V domains shown)
VH: B1 VH
VL: B1 VL with E31H, H39K
notes: one-arm IgG1
B6: CE115HA000/GLS3000 H27dM (antibody, IgG1, name in Kabat numbering, V domains shown)
VH: B1 VH
VL: B1 VL with E31M
notes: one-arm IgG1
B7: CE115HA000/GLS3000 H27dV (antibody, IgG1, name in Kabat numbering, V domains shown)
VH: B1 VH
VL: B1 VL with E31V
notes: one-arm IgG1
B8: CE115HA000/GLS3000 H34G (antibody, IgG1, name in Kabat numbering, V domains shown)
VH: B1 VH
VL: B1 VL with E31H, H39G
notes: one-arm IgG1
B9: CE115HA000/GLS3000 H27dK (antibody, IgG1, name in Kabat numbering, V domains shown)
VH: B1 VH
VL: B1 VL with E31K
notes: one-arm IgG1
B10: CE115HA000/GLS3000 K50P (antibody, IgG1, name in Kabat numbering, V domains shown)
VH: B1 VH
VL: B1 VL with E31H, K55P
notes: one-arm IgG1
B11: CE115HA000/GLS3000 H27dN (antibody, IgG1, name in Kabat numbering, V domains shown)
VH: B1 VH
VL: B1 VL with E31N
notes: one-arm IgG1
B12: CE115HA000/GLS3000 K50S (antibody, IgG1, name in Kabat numbering, V domains shown)
VH: B1 VH
VL: B1 VL with E31H, K55S
notes: one-arm IgG1
B13: CE115HA000/GLS3000 H27dS (antibody, IgG1, name in Kabat numbering, V domains shown)
VH: B1 VH
VL: B1 VL with E31S
notes: one-arm IgG1
B14: CE115HA000/GLS3000 H34M (antibody, IgG1, name in Kabat numbering, V domains shown)
VH: B1 VH
VL: B1 VL with E31H, H39M
notes: one-arm IgG1
B15: CE115HA000/GLS3000 K50T (antibody, IgG1, name in Kabat numbering, V domains shown)
VH: B1 VH
VL: B1 VL with E31H, K55T
notes: one-arm IgG1
B16: CE115HA000/GLS3000 H27dI (antibody, IgG1, name in Kabat numbering, V domains shown)
VH: B1 VH
VL: B1 VL with E31I
notes: one-arm IgG1
B17: CE115HA000/GLS3000 K50E (antibody, IgG1, name in Kabat numbering, V domains shown)
VH: B1 VH
VL: B1 VL with E31H, K55E
notes: one-arm IgG1
B18: CE115HA000/GLS3000 H34A (antibody, IgG1, name in Kabat numbering, V domains shown)
VH: B1 VH
VL: B1 VL with E31H, H39A
notes: one-arm IgG1
B19: CE115HA000/GLS3000 H34W (antibody, IgG1, name in Kabat numbering, V domains shown)
VH: B1 VH
VL: B1 VL with E31H, H39W
notes: one-arm IgG1
B20: CE115HA000/GLS3000 K50G (antibody, IgG1, name in Kabat numbering, V domains shown)
VH: B1 VH
VL: B1 VL with E31H, K55G
notes: one-arm IgG1
B21: CE115HA000/GLS3000 H34S (antibody, IgG1, name in Kabat numbering, V domains shown)
VH: B1 VH
VL: B1 VL with E31H, H39S
notes: one-arm IgG1
B22: CE115HA000/GLS3000 K50A (antibody, IgG1, name in Kabat numbering, V domains shown)
VH: B1 VH
VL: B1 VL with E31H, K55A
notes: one-arm IgG1
B23: CE115HA000/GLS3000 H27dT (antibody, IgG1, name in Kabat numbering, V domains shown)
VH: B1 VH
VL: B1 VL with E31T
notes: one-arm IgG1
B24: CE115HA000/GLS3000 K50R (antibody, IgG1, name in Kabat numbering, V domains shown)
VH: B1 VH
VL: B1 VL with E31H, K55R
notes: one-arm IgG1
B25: CE115HA000/GLS3000 H27dW (antibody, IgG1, name in Kabat numbering, V domains shown)
VH: B1 VH
VL: B1 VL with E31W
notes: one-arm IgG1
B26: CE115HA000/GLS3000 H27dF (antibody, IgG1, name in Kabat numbering, V domains shown)
VH: B1 VH
VL: B1 VL with E31F
notes: one-arm IgG1
B27: CE115HA000/GLS3000 H34P (antibody, IgG1, name in Kabat numbering, V domains shown)
VH: B1 VH
VL: B1 VL with E31H, H39P
notes: one-arm IgG1
B28: CE115HA000/GLS3000 H34F (antibody, IgG1, name in Kabat numbering, V domains shown)
VH: B1 VH
VL: B1 VL with E31H, H39F
notes: one-arm IgG1
B29: CE115HA000/GLS3000 H34N (antibody, IgG1, name in Kabat numbering, V domains shown)
VH: B1 VH
VL: B1 VL with E31H, H39N
notes: one-arm IgG1
B30: CE115HA000/GLS3000 H34E (antibody, IgG1, name in Kabat numbering, V domains shown)
VH: B1 VH
VL: B1 VL with E31H, H39E
notes: one-arm IgG1
B31: CE115HA000/GLS3000 H27dQ (antibody, IgG1, name in Kabat numbering, V domains shown)
VH: B1 VH
VL: B1 VL with E31Q
notes: one-arm IgG1
B32: CE115HA000/GLS3000 H27dP (antibody, IgG1, name in Kabat numbering, V domains shown)
VH: B1 VH
VL: B1 VL with E31P
notes: one-arm IgG1
B33: CE115HA000/GLS3000 H27dL (antibody, IgG1, name in Kabat numbering, V domains shown)
VH: B1 VH
VL: B1 VL with E31L
notes: one-arm IgG1
B34: CE115HA000/GLS3000 H34L (antibody, IgG1, name in Kabat numbering, V domains shown)
VH: B1 VH
VL: B1 VL with E31H, H39L
notes: one-arm IgG1
B35: CE115HA000/GLS3000 H34T (antibody, IgG1, name in Kabat numbering, V domains shown)
VH: B1 VH
VL: B1 VL with E31H, H39T
notes: one-arm IgG1
B36: CE115HA000/GLS3000 H27dG (antibody, IgG1, name in Kabat numbering, V domains shown)
VH: B1 VH
VL: B1 VL with E31G
notes: one-arm IgG1
B37: CE115HA000/GLS3000 H34V (antibody, IgG1, name in Kabat numbering, V domains shown)
VH: B1 VH
VL: B1 VL with E31H, H39V
notes: one-arm IgG1
B38: CE115HA000/GLS3000 K50D (antibody, IgG1, name in Kabat numbering, V domains shown)
VH: B1 VH
VL: B1 VL with E31H, K55D
notes: one-arm IgG1
B39: CE115HA000/GLS3000 H27dY (antibody, IgG1, name in Kabat numbering, V domains shown)
VH: B1 VH
VL: B1 VL with E31Y
notes: one-arm IgG1
B40: CE115HA000/GLS3000 H34I (antibody, IgG1, name in Kabat numbering, V domains shown)
VH: B1 VH
VL: B1 VL with E31H, H39I
notes: one-arm IgG1
B41: CE115HA000/GLS3000 K50L (antibody, IgG1, name in Kabat numbering, V domains shown)
VH: B1 VH
VL: B1 VL with E31H, K55L
notes: one-arm IgG1
B42: CE115HA000/GLS3000 H34Y (antibody, IgG1, name in Kabat numbering, V domains shown)
VH: B1 VH
VL: B1 VL with E31H, H39Y
notes: one-arm IgG1
B43: CE115HA000/GLS3000 H34D (antibody, IgG1, name in Kabat numbering, V domains shown)
VH: B1 VH
VL: B1 VL with E31H, H39D
notes: one-arm IgG1
B44: CE115HA000/GLS3000 K50Y (antibody, IgG1, name in Kabat numbering, V domains shown)
VH: B1 VH
VL: B1 VL with E31H, K55Y
notes: one-arm IgG1

Biological target: T1, CD3 epsilon homodimer protein (UniProt P07766 23-126)
T1 construct: also called CD3 (CD3 epsilon)
Assay: SPR, antibody over immobilised CD3e homodimer;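 note: SPR at 25 °C with CD3 epsilon homodimer amine-coupled to a CM4 sensor chip and antibody flowed over as analyte in HBS-EP+ running buffer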
Description: An appropriate amount of CD3 epsilon homodimer protein was immobilized onto Sensor chip CM4 (GE Healthcare Japan Corp.) by the amine coupling method. Then, the antibody having an appropriate concentration was injected thereto as an analyte and allowed to interact with the CD3 epsilon homodimer protein on the sensor chip. Then, the sensor chip was regenerated by the injection of 10 mmol/L glycine-HCl (pH 1.5). The assay was conducted at 25 degrees C., and HBS-EP+(GE Healthcare Japan Corp.) was used as a running buffer. […] Each parameter was calculated using Biacore T200 Evaluation Software (GE Healthcare Japan Corp.).

T1 sequence (P07766 23-126): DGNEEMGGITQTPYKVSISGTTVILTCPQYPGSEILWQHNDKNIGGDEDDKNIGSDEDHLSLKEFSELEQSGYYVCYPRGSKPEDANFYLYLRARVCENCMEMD

Row | Binder | KD ratio to GLS3000
1 | B1 | 42.3
2 | B2 | 2.35
3 | B3 | 8.13
4 | B4 | 4.6
5 | B5 | 4.1
6 | B6 | 3.43
7 | B7 | 354
8 | B8 | 1.08
9 | B9 | 3.8
10 | B10 | 27.7
11 | B11 | 3.43
12 | B12 | 45.3
13 | B13 | 3.05
14 | B14 | 3.16
15 | B15 | 25.1
16 | B16 | 7.77
17 | B17 | 57.2
18 | B18 | 1.18
19 | B19 | 8.45
20 | B20 | 42.4
21 | B21 | 1.24
22 | B22 | 59.5

Row | Binder | KD ratio to GLS3000
23 | B23 | 13000
24 | B24 | 1.83
25 | B25 | 1.86
26 | B26 | 2.05
27 | B27 | 1.22
28 | B28 | 3.5
29 | B29 | 2.84
30 | B30 | 8.03
31 | B31 | 7.48
32 | B32 | 9.21
33 | B33 | 3.37
34 | B34 | 1.03
35 | B35 | 1.1
36 | B36 | 3.51
37 | B37 | 1.04
38 | B38 | 114
39 | B39 | 1.98
40 | B40 | 0.89
41 | B41 | 36.4
42 | B42 | 2.44
43 | B43 | 2100
44 | B44 | 195
